# From US20220119517A1
# Assays:
# [1] = target: human Claudin18.2 (CLDN18.2), full length, on cells (human); assay: FACS on NUGC4 cells
# [2] = target: human Claudin18.2 (CLDN18.2), full length, on cells (human); assay: cell-based or functional assay
# [3] = target: human Claudin18.1 (CLDN18.1), full length, on cells (human) (UniProt P56856); assay: FACS on CHO-K1-CLDN18.1 cells
substance,measurement,setting,value
"human IgG1, kappa isotype control antibody",MFI (CLDN18.2),[1],93 MFI
same,"ADCC cytotoxicity by LDH method, PBMC effectors, Max (%)",[2],52%
same,"in-vitro ADCC activity, Jurkat-CD16A/NF luciferase reporter, EC50",[2],13.5 nM
same,"in-vitro ADCC activity, Jurkat-CD16A/NF luciferase reporter, Top",[2],6190
same,MFI (CLDN18.1),[3],219 MFI
